Data: patent US20230002480A1

What was measured:
Assay in all cases: cell-based or functional assay
[1] = biological target: HIV-1 Env of pseudovirus CAP210.2.00.E8 (clade C) (HIV-1)
[2] = biological target: HIV-1 Env of pseudovirus Du422.1 (clade C) (HIV-1)
[3] = biological target: HIV-1 Env of pseudovirus Q461.e2 (clade A) (HIV-1)
[4] = biological target: HIV-1 Env of pseudovirus CAAN5342.A2 (clade B) (HIV-1)
[5] = biological target: HIV-1 Env of pseudovirus QH0692.42 (clade B) (HIV-1)
[6] = biological target: HIV-1 Env of pseudovirus 6240_08_TA5_4622 (clade B (T/F)) (HIV-1)
[7] = biological target: HIV-1 Env of pseudovirus Du156.12 (clade C) (HIV-1)
[8] = biological target: HIV-1 Env of pseudovirus ZM249M.PL1 (clade C) (HIV-1)
[9] = biological target: HIV-1 Env of pseudovirus REJO4541.67 (clade B) (HIV-1)
[10] = biological target: HIV-1 Env of pseudovirus Ce703010054_2A2 (clade C (T/F)) (HIV-1)
[11] = biological target: HIV-1 Env of pseudovirus Ce1086_B2 (clade C (T/F)) (HIV-1)
[12] = biological target: HIV-1 Env of pseudovirus MS208.A1 (clade A) (HIV-1)
[13] = biological target: HIV-1 Env of pseudovirus WEAU_d15_410_787 (clade B (T/F)) (HIV-1)
[14] = biological target: HIV-1 Env of pseudovirus Ce1176_A3 (clade C (T/F)) (HIV-1)
[15] = biological target: HIV-1 Env of pseudovirus T278-50 (clade CRF02_AG) (HIV-1)
[16] = biological target: HIV-1 Env of pseudovirus BJOX015000.11.5 (clade CRF01_AE (T/F)) (HIV-1)
[17] = biological target: HIV-1 Env of pseudovirus C2101.c01 (clade CRF01_AE) (HIV-1)
[18] = biological target: HIV-1 Env of pseudovirus C4118.c09 (clade CRF01_AE) (HIV-1)
[19] = biological target: HIV-1 Env of pseudovirus 620345.c01 (clade CRF01_AE) (HIV-1)
[20] = biological target: HIV-1 Env of pseudovirus X1193_c1 (clade G) (HIV-1)
[21] = biological target: HIV-1 Env of pseudovirus R3265.c06 (clade CRF01_AE) (HIV-1)
[22] = biological target: HIV-1 Env of pseudovirus BJOX010000.06.2 (clade CRF01_AE (T/F)) (HIV-1)
[23] = biological target: HIV-1 Env of pseudovirus R1166.c01 (clade CRF01_AE) (HIV-1)

N49P7.2 (antibody) gave an IC50 [1] of 3.94 µg/mL, an IC80 [1] of 21.7 µg/mL and an MPI [1] of 95. For the same substance, the IC50 [2] was > 50 µg/mL, the IC80 [2] was > 50 µg/mL and the MPI [2] was 22. It also gave an IC50 [3] of 0.472 µg/mL, an IC80 [3] of 2.24 µg/mL and an MPI [3] of 100. For the same substance, the IC50 [4] was 0.809 µg/mL, the IC80 [4] was 2.81 µg/mL and the MPI [4] was 100. It also gave an IC50 [5] of 1.26 µg/mL, an IC80 [5] of 4.42 µg/mL and an MPI [5] of 100. It also gave an IC50 [6] of 0.812 µg/mL, an IC80 [6] of 2.87 µg/mL and an MPI [6] of 100. The IC50 [7] was 0.058 µg/mL, the IC80 [7] was 0.21 µg/mL and the MPI [7] was 100. The IC50 [8] was 0.073 µg/mL, the IC80 [8] was 0.256 µg/mL and the MPI [8] was 100. For the same substance, the IC50 [9] was 0.018 µg/mL, the IC80 [9] was 0.08 µg/mL and the MPI [9] was 100. The IC50 [10] was 0.124 µg/mL, the IC80 [10] was 0.576 µg/mL and the MPI [10] was 100. It also gave an IC50 [11] of 0.166 µg/mL, an IC80 [11] of 1 µg/mL and an MPI [11] of 100. It also gave an IC50 [12] of 0.186 µg/mL, an IC80 [12] of 0.966 µg/mL and an MPI [12] of 100. The IC50 [13] was 0.052 µg/mL, the IC80 [13] was 0.15 µg/mL and the MPI [13] was 100. The IC50 [14] was 0.332 µg/mL, the IC80 [14] was 1.08 µg/mL and the MPI [14] was 100.
In the case of 10E8 (antibody), the IC50, titer in TZM.bl cells [15] was 0.949 µg/mL, the IC80, titer in TZM.bl cells [15] was 7.46 µg/mL and the IC50, titer in TZM.bl cells [16] was 0.051 µg/mL. For the same substance, the IC80, titer in TZM.bl cells [16] was 1.91 µg/mL, the IC50, titer in TZM.bl cells [17] was 1.92 µg/mL and the IC80, titer in TZM.bl cells [17] was 8.26 µg/mL. For the same substance, the IC50, titer in TZM.bl cells [18] was 1.62 µg/mL, the IC80, titer in TZM.bl cells [18] was 9.06 µg/mL and the IC50, titer in TZM.bl cells [19] was 0.455 µg/mL. The IC80, titer in TZM.bl cells [19] was 6 µg/mL, the IC50, titer in TZM.bl cells [20] was 0.497 µg/mL and the IC80, titer in TZM.bl cells [20] was 4.2 µg/mL. For the same substance, the IC50, titer in TZM.bl cells [21] was > 10 µg/mL, the IC80, titer in TZM.bl cells [21] was > 10 µg/mL and the IC50, titer in TZM.bl cells [22] was 0.341 µg/mL. For the same substance, the IC80, titer in TZM.bl cells [22] was 5.29 µg/mL, the IC50, titer in TZM.bl cells [23] was 0.274 µg/mL and the IC80, titer in TZM.bl cells [23] was 2.61 µg/mL.
For N49P18.1 (antibody), the IC50 [1] was > 50 µg/mL, the IC80 [1] was > 50 µg/mL and the MPI [1] was 11. For the same substance, the IC50 [2] was 21.5 µg/mL, the IC80 [2] was > 50 µg/mL and the MPI [2] was 75. The IC50 [3] was 24.7 µg/mL, the IC80 [3] was > 50 µg/mL and the MPI [3] was 68. The IC50 [4] was 16.1 µg/mL, the IC80 [4] was 49.1 µg/mL and the MPI [4] was 83. The IC50 [5] was > 50 µg/mL, the IC80 [5] was > 50 µg/mL and the MPI [5] was 43. The IC50 [6] was 35.2 µg/mL, the IC80 [6] was > 50 µg/mL and the MPI [6] was 60. It also gave an IC50 [7] of 1.88 µg/mL, an IC80 [7] of 6.81 µg/mL and an MPI [7] of 100. It also gave an IC50 [8] of 4.16 µg/mL, an IC80 [8] of 19.8 µg/mL and an MPI [8] of 98. The IC50 [9] was 4.08 µg/mL, the IC80 [9] was 30.1 µg/mL and the MPI [9] was 89. The IC50 [10] was 4.15 µg/mL, the IC80 [10] was 11.6 µg/mL and the MPI [10] was 98. The IC50 [11] was 8.98 µg/mL, the IC80 [11] was 48 µg/mL and the MPI [11] was 92. The IC50 [12] was 8.31 µg/mL, the IC80 [12] was 33.3 µg/mL and the MPI [12] was 88. For the same substance, the IC50 [13] was 4.27 µg/mL, the IC80 [13] was 15.5 µg/mL and the MPI [13] was 98. For the same substance, the IC50 [14] was 32.5 µg/mL, the IC80 [14] was > 50 µg/mL and the MPI [14] was 61.
In the case of 10-1074 (antibody), the IC50, titer in TZM.bl cells [15] was 2.15 µg/mL, the IC80, titer in TZM.bl cells [15] was 18.3 µg/mL and the IC50, titer in TZM.bl cells [16] was > 50 µg/mL. The IC80, titer in TZM.bl cells [16] was > 50 µg/mL, the IC50, titer in TZM.bl cells [17] was > 50 µg/mL and the IC80, titer in TZM.bl cells [17] was > 50 µg/mL. For the same substance, the IC50, titer in TZM.bl cells [18] was > 50 µg/mL, the IC80, titer in TZM.bl cells [18] was > 50 µg/mL and the IC50, titer in TZM.bl cells [19] was > 50 µg/mL. For the same substance, the IC80, titer in TZM.bl cells [19] was > 50 µg/mL, the IC50, titer in TZM.bl cells [20] was 0.083 µg/mL and the IC80, titer in TZM.bl cells [20] was 0.475 µg/mL. The IC50, titer in TZM.bl cells [22] was > 50 µg/mL, the IC80, titer in TZM.bl cells [22] was > 50 µg/mL and the IC50, titer in TZM.bl cells [23] was > 50 µg/mL. For the same substance, the IC80, titer in TZM.bl cells [23] was > 50 µg/mL.
N49P11 (antibody) showed an IC50 [1] of 5.12 µg/mL, an IC80 [1] of 19.4 µg/mL and an MPI [1] of 100. For the same substance, the IC50 [2] was 8.81 µg/mL, the IC80 [2] was 21.2 µg/mL and the MPI [2] was 100. The IC50 [3] was 0.363 µg/mL, the IC80 [3] was 2.15 µg/mL and the MPI [3] was 100. It also gave an IC50 [4] of 9.03 µg/mL, an IC80 [4] of 20.8 µg/mL and an MPI [4] of 100. For the same substance, the IC50 [5] was 0.55 µg/mL, the IC80 [5] was 2.65 µg/mL and the MPI [5] was 100. For the same substance, the IC50 [6] was 0.72 µg/mL, the IC80 [6] was 3 µg/mL and the MPI [6] was 100. The IC50 [7] was 2.4 µg/mL, the IC80 [7] was 12 µg/mL and the MPI [7] was 100. For the same substance, the IC50 [8] was 3.64 µg/mL, the IC80 [8] was 17.4 µg/mL and the MPI [8] was 100. It also gave an IC50 [9] of 10.8 µg/mL, an IC80 [9] of 27.1 µg/mL and an MPI [9] of 100. For the same substance, the IC50 [10] was 1.42 µg/mL, the IC80 [10] was 7.51 µg/mL and the MPI [10] was 100. For the same substance, the IC50 [11] was 2.19 µg/mL, the IC80 [11] was 11.7 µg/mL and the MPI [11] was 100. It also gave an IC50 [12] of 0.259 µg/mL, an IC80 [12] of 1.94 µg/mL and an MPI [12] of 100. The IC50 [13] was 1.7 µg/mL, the IC80 [13] was 6.02 µg/mL and the MPI [13] was 100. It also gave an IC50 [14] of 0.946 µg/mL, an IC80 [14] of 6.05 µg/mL and an MPI [14] of 100.
